This note sets out measurements from patent US9266930.

The target of experiment [1] is HLA-A*1101 (human). The conditions noted are these: for binding affinity ratio (relative to standard peptide): scale: ratio.
Experiment [2] addresses HLA-DR2w2β2 (DRB5*0101) (human).
The target of experiment [3] is HLA-DR5w11 (DRB1*1101) (human).
Experiment [4] has as its target HLA-A*1101 (purified HLA class I molecule) (human). Nature of the experiment: competition with a 125I-labelled probe peptide for purified HLA-A*1101.
Experiment [5] has as its target HLA-A*1101 (human). Nature of the experiment: competition with 125I-labelled standard peptide for purified HLA, gel filtration.
Experiment [6] has as its target T1, HLA-DR7 (DRB1*0701) (human).
T1 chain 1: not shown
T1 chain 2: not shown

Experiment [7] addresses HLA-DR1 (DRB1*0101) (human).
Experiment [8] has as its target HLA-DR4w15 (DRB1*0405) (human).
In experiment [9] the target is T2, HLA-DR8w2 (DRB1*0802) (human).
T2 chain 1: not shown
T2 chain 2: not shown

Experiment [10] has as its target T3, HLA-DR5w12 (DRB1*1201) (human).
T3 chain 1: not shown
T3 chain 2: not shown

Like-named read-outs stand apart in the source and are kept apart here.

B1: … (Pf SSP2 192) (peptide)
peptide: QGINVAFNR
modifications: not checked
Turning to B1, the binding affinity ratio (IC50 of standard peptide / IC50 of test peptide) with HLA-A*1101 (human) [1] was found to be 0.078.

B2: … (peptide)
peptide: MKILSVFFLALFFII
modifications: not checked
Consider B2, for which the binding affinity ratio (IC50 of standard peptide / IC50 of test peptide) in experiment [2] is -0.0021; in [3], -0.001.

B3: … (Pf SSP2 262, 9-mer) (peptide)
peptide: RSRKREILH
modifications: not checked
B3: the binding affinity ratio (IC50 of standard peptide / IC50 of test peptide) in [4] worked out at 0.0002.

B4: … (Pf SSP2 15, 9-mer A02 supermotif peptide) (peptide)
peptide: LIFFDLFLV
modifications: not checked
On to B4, for which the binding affinity ratio (IC50 of standard peptide / IC50 of test peptide) with HLA-A*0201 (Human) stood at 0.089.

B5: … (peptide)
peptide: WSPCSVTCGK
modifications: not checked
Consider B5, for which the binding affinity ratio (IC50 of standard peptide / IC50 of test peptide) in the experiment with HLA-A*1101 (human) [5] came to 0.0002.

B6: … (peptide)
peptide: AVPLAMKLIQQLNLN
modifications: not checked
Take B6: the values for the binding affinity ratio (IC50 of standard peptide / IC50 of test peptide) in experiment [2] and in [3] were -0.0006 and 0.0002, respectively.

B7: SSP2 50 … (peptide)
peptide: YLLMDCSGSI
modifications: not checked
As for B7, in the experiment with HLA-A*0201 (Human), the binding affinity ratio (IC50 of standard peptide / IC50 of test peptide) was 0.17.

B8: … (Pf SSP2 436, 10-mer) (peptide)
peptide: QSQDNNGNRH
modifications: not checked
Take B8: the binding affinity ratio (IC50 of standard peptide / IC50 of test peptide) in experiment [4] was 0.0002.

B9: … (Pf SSP2 448) (peptide)
peptide: NSEDRETRPH
modifications: not checked
In the case of B9, the binding affinity ratio (IC50 of standard peptide / IC50 of test peptide) with HLA-A*1101 (human) [1] stood at 0.0002.

B10: … (P. falciparum EXP-1, position 5, 10 amino acids) (peptide)
peptide: SVFFLALFFI
modifications: not checked
For the molecule B10, the binding affinity ratio (IC50 of standard peptide / IC50 of test peptide) in the experiment with HLA-A*0201 (Human) stood at 0.0017.

B11: … (Pf SSP2 203, 9-mer) (peptide)
peptide: VGCHPSDGK
modifications: not checked
As to B11, in experiment [4], the binding affinity ratio (IC50 of standard peptide / IC50 of test peptide) came to 0.0003.

B12: SSP2 218 … (peptide)
peptide: SAWENVKNV
modifications: not checked
For B12, the binding affinity ratio (IC50 of standard peptide / IC50 of test peptide) in the experiment with HLA-A*0201 (Human) is 0.0019.

B13: SSP2 11 … (peptide)
peptide: VIVFLIFFDL
modifications: not checked
As for B13, the binding affinity ratio (IC50 of standard peptide / IC50 of test peptide) with HLA-A*0201 (Human) came to 0.0038.

B14: … (Pf SSP2 507, 10-mer) (peptide)
peptide: GLALLACAGL
modifications: not checked
For the molecule B14, the binding affinity ratio (IC50 of standard peptide / IC50 of test peptide) in the experiment with HLA-A*0201 (Human) stood at 0.017.

B15: … (Pf SSP2 15) (peptide)
peptide: LIFFDLFLVNGRDVQ
modifications: not checked
Take B15: the binding affinity ratio (IC50 of standard peptide / IC50 of test peptide) in experiment [6] was determined as 0.047.

B16: … (peptide)
peptide: SVTCGKGTR
modifications: not checked
In the case of B16, in the experiment with HLA-A*1101 (human) [5], the binding affinity ratio (IC50 of standard peptide / IC50 of test peptide) was determined as 0.0009.

B17: … (Pf SSP2 165) (peptide)
peptide: PDSIQDSLK
modifications: not checked
B17: in the experiment with HLA-A*1101 (human) [1], the binding affinity ratio (IC50 of standard peptide / IC50 of test peptide) was 0.0002.

B18: … (Pf SSP2 51, 9-mer A02 supermotif peptide) (peptide)
peptide: LLMDCSGSI
modifications: not checked
For B18, in the experiment with HLA-A*0201 (Human), the binding affinity ratio (IC50 of standard peptide / IC50 of test peptide) was found to be 0.046.

B19: … (peptide)
peptide: VVILTDGIPDSIQDS
modifications: not checked
Turning to B19, the binding affinity ratio (IC50 of standard peptide / IC50 of test peptide) in [7] was 0.0001; in [2], -0.0006; in experiment [3], -0.0004.

B20: … (P. falciparum EXP, position 32) (peptide)
peptide: GVSSKKKNK
modifications: not checked
For the molecule B20, the binding affinity ratio (IC50 of standard peptide / IC50 of test peptide) with HLA-A*0301 (human) worked out at 0.0001.

B21: Pf EXP peptide … (position 15) (peptide)
peptide: IFNKESLAEK
modifications: not checked
For the molecule B21, the binding affinity ratio (relative to standard peptide) in the experiment with HLA-A*1101 (human) [1] worked out at 0.0003.

B22: Pf EXP peptide … (position 32) (peptide)
peptide: GVSSKKKNKK
modifications: not checked
For the molecule B22, the binding affinity ratio (relative to standard peptide) in the experiment with HLA-A*1101 (human) [1] is 0.0002.

B23: … (P. falciparum EXP, position 32) (peptide)
peptide: GVSSKKKNKK
modifications: not checked
Take B23: the binding affinity ratio (IC50 of standard peptide / IC50 of test peptide) with HLA-A*0301 (human) stood at 0.0011.

B24: … (Pf SSP2 7) (peptide)
peptide: VKYLVIVFLIFFDLF
modifications: not checked
Regarding B24, in experiment [6], the binding affinity ratio (IC50 of standard peptide / IC50 of test peptide) is 0.001.

B25: … (Pf SSP2 250, 10-mer) (peptide)
peptide: WSPCSVTCGK
modifications: not checked
Take B25: in [4], the binding affinity ratio (IC50 of standard peptide / IC50 of test peptide) turned out to be 0.0002.

B26: Pf EXP peptide … (position 27) (peptide)
peptide: KGTGSGVSSK
modifications: not checked
As to B26, the binding affinity ratio (relative to standard peptide) with HLA-A*1101 (human) [1] amounted to 0.0009.

B27: … (Pf SSP2 328) (peptide)
peptide: PSPNPEEGK
modifications: not checked
For B27, in the experiment with HLA-A*1101 (human) [1], the binding affinity ratio (IC50 of standard peptide / IC50 of test peptide) worked out at 0.0002.

B28: … (peptide)
peptide: TVLLGGVGLVLYNTE
modifications: not checked
Consider B28, for which the binding affinity ratio (IC50 of standard peptide / IC50 of test peptide) was -0.0009 in experiment [8], 0.49 in experiment [7], -0.0005 in [2] and -0.0002 in [3].

B29: … (Pf SSP2 215, 10-mer) (peptide)
peptide: YADSAWENVK
modifications: not checked
For B29, the binding affinity ratio (IC50 of standard peptide / IC50 of test peptide) in experiment [4] was 0.0002.

B30: Pf EXP peptide … (position 51) (peptide)
peptide: HDLISDMIKK
modifications: not checked
B30: the binding affinity ratio (relative to standard peptide) with HLA-A*1101 (human) [1] was 0.0002.

B31: … (Pf SSP2 436) (peptide)
peptide: QSQDNNGNR
modifications: not checked
On to B31, for which the binding affinity ratio (IC50 of standard peptide / IC50 of test peptide) with HLA-A*1101 (human) [1] worked out at 0.0002.

B32: … (EXP position 92, 9 amino acids) (peptide)
peptide: LLGGVGLVL
modifications: not checked
Turning to B32, the binding affinity ratio (IC50 of standard peptide / IC50 of test peptide) in the experiment with HLA-A*0201 (Human) worked out at 0.0038.

B33: … (Pf SSP2 167, 10-mer) (peptide)
peptide: SIQDSLKESR
modifications: not checked
Take B33: the binding affinity ratio (IC50 of standard peptide / IC50 of test peptide) in [4] was 0.0009.

B34: … (P. falciparum EXP-1, position 91, 9 amino acids) (peptide)
peptide: VLLGGVGLV
modifications: not checked
In the case of B34, the binding affinity ratio (IC50 of standard peptide / IC50 of test peptide) in the experiment with HLA-A*0201 (Human) is 0.029.

B35: SSP2 226 … (peptide)
peptide: VIGPFMKAV
modifications: not checked
On to B35, for which the binding affinity ratio (IC50 of standard peptide / IC50 of test peptide) with HLA-A*0201 (Human) turned out to be 0.0004.

B36: … (Pf SSP2 169) (peptide)
peptide: QDSLKESRK
modifications: not checked
Regarding B36, the binding affinity ratio (IC50 of standard peptide / IC50 of test peptide) with HLA-A*1101 (human) [1] is 0.0002.

B37: … (Pf SSP2 235) (peptide)
peptide: CVEVEKTASCGVWDE
modifications: not checked
Regarding B37, the binding affinity ratio (IC50 of standard peptide / IC50 of test peptide) in experiment [9] amounted to 0.0005; in experiment [6] it was 0.0095; in experiment [10] it was 0.0001.

B38: … (Pf SSP2 503, 9-mer) (peptide)
peptide: GIAGGLALL
modifications: not checked
For B38, the binding affinity ratio (IC50 of standard peptide / IC50 of test peptide) with HLA-A*0201 (Human) came out at 0.0022.

B39: Pf EXP peptide … (position 32) (peptide)
peptide: GVSSKKKNK
modifications: not checked
With B39, the binding affinity ratio (relative to standard peptide) with HLA-A*1101 (human) [1] worked out at 0.0002.

B40: … (peptide)
peptide: AGGIAGGLALLACAG
modifications: not checked
For B40, the binding affinity ratio (IC50 of standard peptide / IC50 of test peptide) in [3] is -0.0002.

B41: … (Pf SSP2 120, 9-mer) (peptide)
peptide: SLLSTNLPY
modifications: not checked
B41: in experiment [4], the binding affinity ratio (IC50 of standard peptide / IC50 of test peptide) came to 0.0046.

B42: … (Pf SSP2 280) (peptide)
peptide: QCEEERCPPK
modifications: not checked
Consider B42, for which, in the experiment with HLA-A*1101 (human) [1], the binding affinity ratio (IC50 of standard peptide / IC50 of test peptide) was 0.0002.

B43: … (Pf SSP2 58, 10-mer) (peptide)
peptide: SIRRHNWVNH
modifications: not checked
B43: the binding affinity ratio (IC50 of standard peptide / IC50 of test peptide) in experiment [4] is 0.0002.

B44: … (Pf SSP2 521, 9-mer) (peptide)
peptide: VVPGAATPY
modifications: not checked
With B44, in [4], the binding affinity ratio (IC50 of standard peptide / IC50 of test peptide) turned out to be 0.0002.

B45: … (Pf SSP2 3, 9-mer) (peptide)
peptide: HLGNVKYLV
modifications: not checked
For B45, the binding affinity ratio (IC50 of standard peptide / IC50 of test peptide) with HLA-A*0201 (Human) amounted to 0.0017.

B46: … (peptide)
peptide: SIQDSLKESR
modifications: not checked
Consider B46, for which the binding affinity ratio (IC50 of standard peptide / IC50 of test peptide) with HLA-A*1101 (human) [5] stood at 0.0009.

B47: … (peptide)
peptide: KYLVIVFLIFFDLFL
modifications: not checked
As to B47, the binding affinity ratio (IC50 of standard peptide / IC50 of test peptide) in experiment [8] is -0.003; in [2] it was -0.002; in experiment [3], -0.0009.

B48: Pf EXP peptide … (position 51) (peptide)
peptide: HDLISDMIK
modifications: not checked
In the case of B48, the binding affinity ratio (relative to standard peptide) in the experiment with HLA-A*1101 (human) [1] amounted to 0.0002.

B49: … (Pf SSP2 12, 9-mer A02 supermotif peptide) (peptide)
peptide: IVFLIFFDL
modifications: not checked
On to B49, for which the binding affinity ratio (IC50 of standard peptide / IC50 of test peptide) in the experiment with HLA-A*0201 (Human) worked out at 0.0024.

B50: … (Pf SSP2 139, 9-mer) (peptide)
peptide: QVRKHLNDR
modifications: not checked
As for B50, the binding affinity ratio (IC50 of standard peptide / IC50 of test peptide) in [4] worked out at 0.0002.
